Test results: patent publication US20110286916A1 (published 2011)
Where two headings read alike, the source gives them in different places.

Key:
[1] = biological target: T1, human Notch3-Gal4 chimeric receptor on U2OS FlpIn TREx cells (human, UniProt Q9UM47 40-2321); test: cell-based or functional assay
[2] = biological target: T2, human full-length Notch1 with C-terminal FLAG tag, stably expressed on 293 FlpIn (TREx) cells (human, UniProt P46531 19-2555); test: FACS, hN1 293 cells, MFI grade (++++ >1000)
T2 construct: tetracycline/doxycycline-induced expression from pcDNA5/FRT/TO-HN1+FLAG; also called hN1; 293_N1
Procedure: (§1) Notch 293 FlpIn (TREx) cells were treated with dox (2 ug/ml) for two days to induce Notch expression before collecting them for FACS surface expression analysis. The cells were harvested from tissue culture flasks using Trypsin for 15 min, centrifuged at 1200 rpm for 10 minutes and resuspended in 2 ml PBS with 2% fetal bovine serum (2% FBS/PBS). The cells were counted, adjusted to 10⁷ cells/ml and 0.1 ml of cells was incubated with 1 ug of each Mab for 40 minutes at 4° C. The cells were washed, resuspended in 0.1 ml 2% FBS/PBS and incubated with 1 ug R-PE-conjugated goat anti-human Ig (Jackson ImmunoResearch) for 30 minutes at 4° C. Cells were washed, resuspended in 0.3 ml PBS with 10% formaldehyde and analyzed on a FACSCalibur (Becton Dickinson, Mt View, Calif.).
Clones were analyzed as described in Section I-Example 12. We analyzed the corresponding Mabs for their binding to 293-N1, -N3 and 293 parental cells by flow cytometry.

[3] = biological target: T3, Notch1 extracellular fragment (amino acid 19-526) Fc fusion protein, R&D Systems 3647-TK (human, UniProt P46531 19-526); test: BIAcore SPR, Notch1/Fc on CM5, Mab analyte, 1:1 binding
T3 construct: bought protein; also called Notch1/Fc; Notch1-ECD Fc fusion protein; not shown: Fc of the bought fusion protein
Procedure: All experiments were performed at 25° C. at a flow rate of 40 μl/min. […] FC1 was used as the reference cell. Specific signals were the results of differences of signals obtained on FC2 versus FC1. […] The dissociation phase of the analyte was monitored over a period of time ranging 10-30 minutes. Running buffer was also injected under the same conditions as a reference.
Equilibrium dissociation constant (KD) was calculated by the ratio between dissociation (koff) and association (kon) rate constants.

[4] = biological target: T1, human Notch3-Gal4 chimeric receptor on …; test: cell-based or functional assay; remark: listed apart in the source
[5] = biological target: T2, human full-length Notch1 with …; test: FACS, hN1 293 cells, MFI grade (++ 101-500)
Procedure: as §1

[6] = biological target: T2, human full-length Notch1 with …; test: FACS, hN1 293 cells, MFI grade (+ 11-100)
Procedure: as §1

[7] = biological target: T3, Notch1 extracellular fragment (amino …); test: titration ELISA, antigen coated, purified IgG1
Procedure: Plates were blocked with 300 ul of milk blocker per well and incubated for 2 hour at RT. […] After washing plates with PBS or TBS buffer, anti-human lambda light chain antibody with HRP was used for detection antibody and absorbance at 450 nm was read with a plate reader.

Binder	hN3, inhibition of Luc activity at [166 nM] Mab [1]	MFI [2]	Kd [3]	koff [3]	kon [3]	hN3, inhibition of Luc activity at [166 nM] Mab [4]	MFI [5]	MFI [6]	EC50 [7]
FL-SKNAS-C2-514 (antibody, human IgG1, lambda, V domains shown, full IgG1/lambda chains; name tied through the DNA section of Appendix IX (same order); also called B-000000402-000X) VH: EVQLVQSGAEVKEPGESLRISCKASGYDFSNYWIAWVRQMPGKGLEWMGIIYPGDSDTRYSPSFQGQVTISVDRSISTAYLQWSSLKASDTALYYCSRPTYWSTTWGREFDYWGQGTLVTVSS VL: SYELTQPPSVSVSPGQTATITCSGDALPKKYAYWYQQKSGQAPVLVVYEDSKRPSGIPERFSGSSSGTMATLTISGAQVEDEADYYCYSTDSSGNHWVFGGGTKLTVLG	< 5%	> 1000 mfi							
FL-JEG3-C2-11 (antibody, human IgG1, lambda, V domains shown, full IgG1/lambda chains; name tied through the DNA section of Appendix IX (same order); also called JEG-C2-11; B-000000399-000E) VH: QLQLVETGGGLVQPVGSLRLSCAASGFSFDNYAMSWVRQAPGKGLEWVSSISGSGGQIFYADSVKGRFTISRDNAKNTLVLQMNSLRVDDTAVYYCARDFYRTPGYNTNWGYWGRGTMVTVSS VL: SYVLTQPPSVSVSPGETASISCSGDGLGNKYVAWYQQKPGQSPVLVIQQDSKRPSGIPERFSGSNSGDTATLTISGTQSLDEGDYYCQAWDRPAVIFGGGTKLTVLG	< 5%	> 1000 mfi							
WC-613 (antibody, human IgG1, lambda, V domains shown, also called N1wc613; hN1wc-613) VH: not shown VL: SYELTQPPSASGTPGQRVTISCSGSYSNIGSNYVYWYQQLPGTAPKLLIYTNNQRPSGVPDRFSGSKSGTSASLVISGLRSDDEGDYYCAAWDDSVSVLLFGGGTKVTVLQ			1.09 nM	0.000258 s⁻¹	237000 M⁻¹ s⁻¹	< 10%	101 to 500 mfi		
S3-009 (antibody, human IgG1, lambda, V domains shown, also called hN1S3-009; HN1S3-9) VH: EVQLVQSGAEVKKPGASVKVSCKASGYNFTGYYMHWVRQAPGQGLEWMGWINPNSGGTNYAQKFQGRVTMTRDTSISTAYMELSRLRSDDTAVYYCATDSFDYWGQGTMVTVSS VL: SYVLTQPPSVSEAPRQRVTISCSGSSSNIGNNAVSWYQQLPGKAPKTLIYYDDLLSSGVSDRFSGSRSGTSASLAISGLQSEDEADYYCAAWDDSLNGVVFGGGTKLTVLQ			5.23 nM	0.00268 s⁻¹	513000 M⁻¹ s⁻¹	< 20%	101 to 500 mfi		
WC-97 (antibody, human IgG1, lambda, V domains shown, also called N1wc97; hN1wc-97) VH: EVQLVQSGAEVKKPGASVKVSCKASGYNFTGYYMHWVRQAPGQGLEWMGWINPNSGGTNYAQKFQGRVAMTRDTSISTAYMELSRLRSDDSAVYYCATDSFDYWGRGTTVTVSS VL: QSVLTQPPSVSGAPGQRVTISCTGTSSNIGAGYDVQWYQQLPGTAPKVLMYGNSNRPSGVPDRFSGSKSGTSASLAITGLQAEDEADYYCQSYDSSLSGSLFGTGTKVTVLQ			7.87 nM	0.000438 s⁻¹	55600 M⁻¹ s⁻¹	< 10%		11 to 100 mfi	
WC-155 (antibody, human IgG1, lambda, V domains shown, also called N1wc155; hN1wc-155) VH: EVQLVQSGAEVKKPGASVKVSCKASGYNFTGYYMHWVRQAPGQGLEWMGWINPNSGGTNYAQKFQGRVTMTRDTSISTAYMELSRLRSDDTAVYYCATDSFDYWGRGTLVTVSS VL: QSVLTQPPSVSGAPGQRVTISCTGSSSNIGAGYDVLWYRQLPGTAPKLLIYGNTHRPSGVPDRFSGSNSGTSASLAITGLQAEDEADYYCQSYDSSLSGSVFGGGTKLTVLQ			1.74 nM	0.00029 s⁻¹	166000 M⁻¹ s⁻¹	< 10%	101 to 500 mfi		
WC-168 (antibody, human IgG1, lambda, V domains shown, also called N1wc168; hN1wc-168) VH: EVQLVQSGAEVKKPGASVKVSCKASGYNFTGYYMHWVRQAPGQGLEWMGWINPNSGGTNYAQKFQGRVTMTRDTSISTAYMELSRLRSDDTAVYYCATDSFDYWGRGTLVTVSS VL: not shown			4.7 nM	0.00228 s⁻¹	486000 M⁻¹ s⁻¹	< 10%		11 to 100 mfi	
S3-011 (antibody, human IgG1, lambda, V domains shown, also called hN1S3-011) VH: QVQLVQSGPEVKKPGASVKVSCKASGYNFTGYYMHWVRQAPGQGLEWMGWINPNSGGTNYAQKFQGRVTMTRDTSISTAYMELSRLRSDDTAVYYCATDSFDYWGRGTMVTVSS VL: not shown						< 10%	101 to 500 mfi		
WC-173 (antibody, human IgG1, lambda, V domains shown, also called N1wc173; hN1wc-173) VH: EVQLVQSGAEVKKPGASVKVSCKASGYNFTGYYMHWVRQAPGQGLEWMGWINPNSGGTNYAQKFQGRVTMTRDTSISTAYMELSRLRSDDTAVYYCATDSFDYWGQGTTVTVSS VL: QPVLTQPPSASWTPGQRVTISCSGSSSNIGSNTVHWYRQFPGTAPQLLIYSNNQRPSGVPDRFSGSKSGTSASLAIRGLQSEDEADYYCAAWDDSLNGVVFGGGIKLTVLQ			3.27 nM	0.000447 s⁻¹	137000 M⁻¹ s⁻¹	< 20%	101 to 500 mfi		
S3-013 (antibody, human IgG1, lambda, V domains shown, also called hN1S3-013; HN1S3-13) VH: EVQLVQSGAEVKKPGASVKVSCKASGYNFTGYYMHWVRQAPGQGLEWMGWINPNSGGTNYAQKFQGRVTMTRDTSISTAYMELSRLRSDDTAVYYCATDSFDYWGRGTLVTVSS VL: QPVLTQPPSASGTPGQRVTISCSGSSSNIGSNYVYWYQKFPGTAPKLLIYTNNQRPSGVPDRFSGSKSGTSASLAISGLRSEDEADYYCAAWDDSLSGVVFGGGTKVTVLQ			4.92 nM	0.00294 s⁻¹	597000 M⁻¹ s⁻¹	< 10%		11 to 100 mfi	
S3-094 (antibody, human IgG1, lambda, V domains shown, also called hN1S3-094; HN1S3-94) VH: EVQLVQSGAEVKKPGASVKVSCKASGYNFTGYYMHWVRQAPGQGLEWMGWINPNSGGTNYAQKFQGRVTMTRDTSISTAYMELSRLRSDDTAVYYCATDSFDYWGRGTMVTVSS VL: QSVLTQPPSASGTPGQRVTISCSGGSSNIGSNTVTWYQQLPGKAPKLLIYISDQRPSGVPDRFSGSKSGTSASLAIRGLQSEDEADYYCAAWDDSLNGAVFGTGTKVTVLQ			3.89 nM	0.00163 s⁻¹	420000 M⁻¹ s⁻¹	< 10%	101 to 500 mfi		
S3-056 (antibody, human IgG1, lambda, V domains shown, also called hN1S3-056; HN1S3-56) VH: QVQLQQSGAEVKKPGASVKVSCKASGYNFTGYYMHWVRQAPGQGLEWMGWINPNSGGTNYAQKFQGRVTMTRDTSISTAYMELSRLRSDDTAVYYCATDSFDYWGRGTLVTVSS VL: not shown			5.65 nM	0.00292 s⁻¹	517000 M⁻¹ s⁻¹	< 10%		11 to 100 mfi	
WC-159 (antibody, human IgG1, lambda, V domains shown, also called N1wc159) VH: QLQLVETGGGLVKPGESLTLSCAASGFTFSSYSMNWVRQAPGKGLEWVSSISSSGSSIYYADSLKGRFTISRDNAKNSLYLQMNSLRAEDTAVYYCTRGTQWLAGVGDYWGKGTLVTVSS VL: QSALTQPPSASASPGQSVTISCTGTSSDVGAYDSVSWYQQHPGKAPKLIIYDVNNRPSGVSNRFSGSESGNTASLTISGLQAEDEANYYCSSYRNTKTVVFGGGTKLTVLQ						< 10%			0.12 nM
A2780-C2-16 (antibody, human IgG1, lambda, V domains shown, full IgG1/lambda chains; name tied through the DNA section of Appendix IX (same order); also called B-000000397-000M) VH: EVQLVQSGAEVKKPGSSVKVSCKASGGTFSSFAFSWVRQAPGQGLDWMGRIIPILGRTNYAQKFQGRVTFTADTSTSTVYMELSSLSSEDTAVYYCARDREYSLSLGGSDYWGQGTLVTVSS VL: QAVLTQPSSVSGAPGQRVTISCIGSSSNIGAGYDVHWYRQPPGTAPQLLIYANTNRPSGVPDRFSGSRSGTSASLAITGIQAEDEADYYCQSYDSSLSGRVFGGGTKVTVLG	< 15%	> 1000 mfi							
FL-SKNAS-D2-268 (antibody, human IgG1, lambda, V domains shown, full IgG1/lambda chains; name tied through the DNA section of Appendix IX (same order); also called B-000000395-000V) VH: not shown VL: QAVLTQPSSVSGAPGQRVTISCTGTSSNIGAPYDVNWYQQLPGIAPKLLISGNTNRPSGVPDRFSGSKSGASASLAITGLQADDEADYYCQSYDHSLSGWVFGGGTKVTVLG	< 5%	> 1000 mfi							
